The test deals with T1, ETV1 immunogenic peptide P1 (human).
T1 construct: 27 amino acid peptide, ETV1 residues 212-238; also called immunogen peptide; ETV1 P1 peptide
Description: SPR (Biacore T200), antibody amine-coupled on CM5 chip, peptide as analyte, 1:1 binding fit. As to the method: Affinity measurements using SPRi was performed using a Biacore T200 instrument (Cytiva, Marlborough, MA) by Creative Biolabs (Shirley, NY, USA). The ETV1 (29E4) antibody was directly immobilized onto a CM5 sensor chip surface using an amine coupling kit (Cytiva). Before immobilization, the CM5 sensor surface was activated using a mixture of 400 mM 1-ethyl-3-(3-dimethylaminopropyl) carbodiimide (EDC) and 100 mM N-hydroxysuccinimide (NHS). The ETV1 antibody was diluted to 40 μg/ml in immobilization buffer (10 mM NaAc, pH 4.5) and injected into Fc4 sample channel at a flow rate of 10 μL/min. The amount of antibody (ligand) immobilized was about 5,000 RU. The chip was deactivated by 1 M Ethanolamine hydrochloride-NaOH (GE Healthcare Life Sciences, Piscataway, NJ) at a flow rate of 10 μL/min for 420 seconds. The reference Fc3 channel underwent similar procedures but without injecting the ligand. […] Different concentrations of the […] were then injected into the cell over both channels at a flow rate of 30 μL/min, with a contact time of 90 seconds, followed by a dissociation time of 210 seconds. The surface was regenerated with 10 mM Glycine-HCl, pH 1.5 after each injection to prepare for the injection of the next antibody dilution sample. Data analysis was performed on the Biacore T200 computer and with the Biacore T200 evaluation software, using the steady-state affinity model or 1:1 binding model.
The binding of the 29E4 mAb to its epitope sequence was further analyzed by using SPRi. After immobilizing the ETV1 mAb onto a matrix of dextran on the surface of a Sensor Chip to a level of 5000 response units (RU) with standard amine coupling (FIG. 4, panel A), different concentrations of the serially diluted peptide were then injected as an analyte into the cell over both channels for 300 seconds (contact time of 90 seconds, followed by a dissociation time of 210 seconds) to give a response of about 180 RU. The different binding affinity of each antibody dilution is depicted in the overlay plot of SPR sensorgrams and fitting curves (FIG. 4, panel B).
In general terms: Surface plasmon resonance follows binding to a sensor surface in real time, without labels.

In patent US20260227403A1 (HENRY M JACKSON FOUNDATION FOR THE ADVANCEMENT OF MILITARY …, published 2026) one finds Kd, koff and kon data, which are given here for one molecule.

T1 sequence (peptide, as listed by the source): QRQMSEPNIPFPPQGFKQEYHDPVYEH

B1: ETV1 rabbit monoclonal antibody (29E4) (antibody, V domains shown)
VH: QELEESGGDLVKPGASLTLTCTASGFFFSAENHICWVRQAPGKGLEWIGCVYIGSYVGGSGDPYYASWAKGRFTISKTSSTTVTLQMSSLTAADTATYFCARDLGSLWGPGTLVTVSS
VL: DVVMTQTASSVSAAVGGTVTIACQSSQSVYDNNNLAWFQQKPGQPPKRLIYSASTLASGVSSRFKGSGYGTQFTLTISDVQCDDAATYYCVGAFSGYIFVFGGGTEVVVK
notes: constant regions are not; also called 29E4 mAb; ETV1 29E4 mAb
The term Kd denotes the concentration at which binding is half-saturated. The term koff denotes the first-order rate constant of dissociation. Low readings indicate slow dissociation, high ones fast dissociation. For orientation: kon means the rate constant with which the complex forms. Low readings indicate slow association, high ones fast association. Consider B1, for which the Kd came to 0.479 nM, the off-rate constant (koff) worked out at 0.000149 s⁻¹ and the kon is 311000 M⁻¹ s⁻¹.
